The chains are these.
T1: His6-SUMO-Sse1 (yeast (S. cerevisiae), UniProt P32589 1-693)
T1 construct: Sse1, yeast Hsp110 nucleotide exchange factor, Uniprot ID P32589; Held on the Ni-NTA BLI sensor through the His6-SUMO tag; also called His-Sse1; His-See1; source: recombinant, purified as Sse1 with the proteolytic cleavage of the tag omitted
T1 sequence (looked up): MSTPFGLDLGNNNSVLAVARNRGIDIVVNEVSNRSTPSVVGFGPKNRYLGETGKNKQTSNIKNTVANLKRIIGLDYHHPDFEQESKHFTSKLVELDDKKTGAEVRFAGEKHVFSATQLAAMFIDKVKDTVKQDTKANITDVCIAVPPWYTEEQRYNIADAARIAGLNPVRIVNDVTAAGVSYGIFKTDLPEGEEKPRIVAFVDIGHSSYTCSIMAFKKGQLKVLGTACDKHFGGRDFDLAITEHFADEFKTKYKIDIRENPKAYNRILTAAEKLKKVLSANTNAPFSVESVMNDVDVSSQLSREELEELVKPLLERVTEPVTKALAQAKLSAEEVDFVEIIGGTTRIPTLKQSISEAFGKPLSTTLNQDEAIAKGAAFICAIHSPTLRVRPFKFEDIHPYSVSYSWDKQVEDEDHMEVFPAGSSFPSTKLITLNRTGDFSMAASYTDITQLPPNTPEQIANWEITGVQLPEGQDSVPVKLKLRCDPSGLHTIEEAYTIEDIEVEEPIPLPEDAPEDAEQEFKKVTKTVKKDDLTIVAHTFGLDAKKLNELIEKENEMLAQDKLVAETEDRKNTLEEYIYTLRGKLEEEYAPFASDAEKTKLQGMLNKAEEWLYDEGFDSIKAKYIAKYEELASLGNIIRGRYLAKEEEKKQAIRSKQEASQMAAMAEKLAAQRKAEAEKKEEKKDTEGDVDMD

B1: Ssa1 (natural protein)
chain: not shown
notes: Ssa1, yeast Hsp70 chaperone, Uniprot ID P10591; also called Hsp70; yeast Hsp70; source: recombinant, expressed from pCA533-His6-SUMO-SSA1, purified using published protocols (Andréasson et al., 2008a)
B2: Sse1 (natural protein, yeast (S. cerevisiae), UniProt P32589 1-693, looked up)
chain: T1 sequence (looked up)
B3: Sis1 immobilised through the His6-SUMO tag (natural protein, yeast (S. cerevisiae), UniProt P25294 1-352, looked up)
chain: MVKETKLYDLLGVSPSANEQELKKGYRKAALKYHPDKPTGDTEKFKEISEAFEILNDPQKREIYDQYGLEAARSGGPSFGPGGPGGAGGAGGFPGGAGGFSGGHAFSNEDAFNIFSQFFGGSSPFGGADDSGFSFSSYPSGGGAGMGGMPGGMGGMHGGMGGMPGGFRSASSSPTYPEEETVQVNLPVSLEDLFVGKKKSFKIGRKGPHGASEKTQIDIQLKPGWKAGTKITYKNQGDYNPQTGRRKTLQFVIQEKSHPNFKRDGDDLIYTLPLSFKESLLGFSKTIQTIDGRTLPLSRVQPVQPSQTSTYPGQGMPTPKNPSQRGNLIVKYKVDYPISLNDAQKRAIDENF
notes: Sis1, yeast class B J-domain protein, Uniprot ID P25294; also called His-Sis1; class B JDP

The experiment “Sse1” concerns the target B2. Nature of the experiment: BLI; His-Sis1 (0.4 µM, to saturation) on the Ni-NTA sensor through the His6-SUMO tag; 1 µM Ssa1 with increasing concentrations of Sse1 or Sse1-2; buffer A with 5 mM ATP and 2 mM DTT. Particulars: both partners purified.
In another experiment the target is T1, His6-SUMO-Sse1. In words: BLI; His-Sse1 (2.5 µM) or His-Sse1-2 (1 µM) on the Ni-NTA sensor through the His6-SUMO tag; Ssa1 at 32-16,000 nM; level of binding fitted with a one site-specific binding model; buffer A with 5 mM ATP and 2 mM DTT. Particulars: both partners purified.
Experiment [1] addresses B1. Nature of the experiment: cell-based or functional assay.
The target of experiment [2] is B1. In words: BLI; His-Sis1 (0.4 µM, to saturation) on the Ni-NTA sensor through the His6-SUMO tag; 1 µM Ssa1 with increasing concentrations of Sse1 or Sse1-2; buffer A with 5 mM ATP and 2 mM DTT. Particulars: both partners purified. (In BLI a coated tip is dipped into the sample, and binding shifts an interference pattern.)

Chain of Ssa1 (P10591 whole entry): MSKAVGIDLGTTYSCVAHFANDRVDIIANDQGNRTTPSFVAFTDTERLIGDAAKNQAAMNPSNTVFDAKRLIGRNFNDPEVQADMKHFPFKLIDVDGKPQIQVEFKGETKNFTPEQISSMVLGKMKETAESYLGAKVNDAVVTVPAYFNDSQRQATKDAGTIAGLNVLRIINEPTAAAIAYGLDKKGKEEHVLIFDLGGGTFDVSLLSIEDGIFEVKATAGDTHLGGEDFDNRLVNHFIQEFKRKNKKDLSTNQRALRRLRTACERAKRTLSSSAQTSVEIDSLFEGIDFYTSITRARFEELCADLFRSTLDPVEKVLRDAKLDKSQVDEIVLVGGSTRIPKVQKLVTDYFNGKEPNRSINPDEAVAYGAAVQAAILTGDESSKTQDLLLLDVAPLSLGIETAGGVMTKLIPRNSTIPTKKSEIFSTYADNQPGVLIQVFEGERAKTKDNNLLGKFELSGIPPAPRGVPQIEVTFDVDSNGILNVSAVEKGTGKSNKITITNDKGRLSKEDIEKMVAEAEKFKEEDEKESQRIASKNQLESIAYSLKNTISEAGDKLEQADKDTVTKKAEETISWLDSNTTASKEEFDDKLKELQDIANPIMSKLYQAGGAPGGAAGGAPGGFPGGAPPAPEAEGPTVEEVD

As to B1, the binding result with Sse1 and in the experiment with His6-SUMO-Sse1 was “binds” each time.
With B2, the “inhibition of the refolding of aggregated luciferase by Ssa1-Ydj1 (1 µM each), titration of Sse1, activity after 1 hr” value in the experiment with Ssa1 [1] is 0.1 µM.
Take B3: the binding result with Ssa1 [2] is “binds”.

Source of the values: paper PMC11479587, “Early steps of protein disaggregation by Hsp70 chaperone and class B J-domain proteins are shaped by Hsp110” (eLife, 2024).
